{"source": "patent US20210060169A1", "target": "human IL-2Rαβγ (human) (UniProt P01589)", "sequence (P01589 22-272, chain 1 of 3)": "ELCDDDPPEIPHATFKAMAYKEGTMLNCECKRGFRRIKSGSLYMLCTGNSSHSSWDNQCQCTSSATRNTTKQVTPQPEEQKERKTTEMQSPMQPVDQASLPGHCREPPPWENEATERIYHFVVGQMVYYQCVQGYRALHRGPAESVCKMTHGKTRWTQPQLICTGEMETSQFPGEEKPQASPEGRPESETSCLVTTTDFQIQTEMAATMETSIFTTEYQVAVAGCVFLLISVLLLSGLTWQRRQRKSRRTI", "sequence (P14784 27-551, chain 2 of 3, further chain)": "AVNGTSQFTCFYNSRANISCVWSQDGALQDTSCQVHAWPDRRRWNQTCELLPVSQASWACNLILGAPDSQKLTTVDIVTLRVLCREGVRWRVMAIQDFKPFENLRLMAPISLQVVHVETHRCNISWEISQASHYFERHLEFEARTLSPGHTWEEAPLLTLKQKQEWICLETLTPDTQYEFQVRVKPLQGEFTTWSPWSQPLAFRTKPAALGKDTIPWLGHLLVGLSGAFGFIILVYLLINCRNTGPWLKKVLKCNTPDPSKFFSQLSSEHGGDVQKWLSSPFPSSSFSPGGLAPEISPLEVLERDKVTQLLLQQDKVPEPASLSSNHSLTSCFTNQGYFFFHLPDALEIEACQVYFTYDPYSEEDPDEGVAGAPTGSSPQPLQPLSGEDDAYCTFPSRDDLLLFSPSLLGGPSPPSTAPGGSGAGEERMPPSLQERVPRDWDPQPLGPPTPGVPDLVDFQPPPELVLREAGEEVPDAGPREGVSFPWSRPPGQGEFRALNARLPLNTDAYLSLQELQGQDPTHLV", "sequence (P31785 23-369, chain 3 of 3, further chain)": "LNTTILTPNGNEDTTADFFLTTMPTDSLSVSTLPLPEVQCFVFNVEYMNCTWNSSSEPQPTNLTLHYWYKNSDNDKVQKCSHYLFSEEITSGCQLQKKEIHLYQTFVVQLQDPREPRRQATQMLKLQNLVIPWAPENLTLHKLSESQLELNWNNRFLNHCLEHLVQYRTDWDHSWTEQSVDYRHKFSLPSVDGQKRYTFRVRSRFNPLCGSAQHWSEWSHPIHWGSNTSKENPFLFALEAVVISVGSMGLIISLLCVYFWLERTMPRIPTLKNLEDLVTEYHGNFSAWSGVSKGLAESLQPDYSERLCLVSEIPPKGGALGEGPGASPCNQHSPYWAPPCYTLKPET", "experiment": "cell-based or functional assay", "data": [{"substance": "8His-S4(oAzZK) (from UniProt P60568 25-153) (ligand)", "values": [{"measurement": "Standardized EC50 ratio value", "result": "< 5"}]}]}
